In the nanobody polyreactivity screen of Harvey et al. (2022):

Assay: yeast display, Sf9 membrane polyspecificity reagent, FACS + sequencing; frameworks hold sequencing errors
Method in brief: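 After 36–48 hours of galactose induction, yeast (Saccharomyces cerevisiae BJ5465) displaying a synthetic nanobody library were stained at 4 °C for 1 hour with 10% biotinylated, detergent-solubilized Sf9 membrane reagent. Streptavidin microbeads enriched the stained cells before FACS sorting into low and high (top ~1%) gates on anti-HA and streptavidin fluorescence. Each clone's polyreactivity label reflects its gate of origin.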

Row | Sequence | polyreactivity (PSR sort gate)
1 | QVQLVESGGGLVQAGGSLRLSCAASGRTFRGNAMRWYRQAPGKERELVAAIRWNGGSTYYADSVKGRFTISRDNAKNTVYLQMNSLKPEDSAVYYCAVSYWYSRYDYWGQGTQVTVSS | high polyreactivity
2 | QVQLVESGGGLVQAGGSLRLSCAASGRTFRGNVMGWYRQAPGKEREFVAAITKSDGSTYYADSVKGRFTISRDNAKNTVYLQMNSLKPEDTAVYYCAARTARTGWPWFRYDYWGQGTQVTVSS | low polyreactivity
3 | QVQLVESGGGLVQAGGSLRLSCAASGRTFRGYAMGWYRQAPGKERELVAAITWRGGSTKYADSVKGRFTISRDNAKNTVYLKMNSLKPEDTAVYYCAAARHYLTFWGQGSQVTVSS | high polyreactivity
4 | QVQLVESGGGLVQAGGSLRLSCAASGRTFRGYAMGWYRQAPGKETELVAAISSGGSTYYADSVKGRFTSSRDNAKYTVYLQMNSLKPEDTAVYYCARAVGNYRTLEFDYWGQGTQVTVSS | low polyreactivity
5 | QVQLVESGGGLVQAGGSLRLSCAASGRTFRGYVMGWYRQAPGKERELVASISYSGGSTYYADSVKGRFTISRDNAKNTVYLQMNSLKPEDTAVYYCAARKGYDQYRWRYSQNNYWGQGTQVTVSS | high polyreactivity
6 | QVQLVESGGGLVQAGGSLRLSCAASGRTFRLYAMGWYRQAPGKERELDAAIRTDDSTNYADSVKGRFTISRDNAKNTVYLQMNSLKPEDTAVYYCNAEGQFTWLGRRRHKFEYWGQGTQVTVSS | low polyreactivity
7 | QVQLVESGGGLVQAGGSLRLSCAASGRTFRLYAMGWYRQAPGKERELVAAIRSGGSTNYADSVKGRFTISRDNEKNTVYLQMNSLKPEYTAVYYCAVDGYFFQGPYYYWGQGTQVTVSS | low polyreactivity
8 | QVQLVESGGGLVQAGGSLRLSCAASGRTFRLYAMGWYRQAPGKERELVAAISYSDGRTYYADSVKGRFTISRDNAKNTVYLQMNSLKPEDTAVYYCAAETLYVSPYFYVVQYDYWGQGTQVTVSS | high polyreactivity
9 | QVQLVESGGGLVQAGGSLRLSCAASGRTFRLYAMGWYRQAPGKERELVAAITFRGGRTYYADSVKGRFTISRDNAKNTVYLQMNSLKPEYTAVYYCNAVTYSSPYRFDYWGQGTQVTVSS | low polyreactivity
10 | QVQLVESGGGLVQAGGSLRLSCAASGRTFRLYAMGWYRQAPGKERELVAVIRAGDSTNYADSVKGRFTISRDNAKNTVYLQLNSLKPDDTAVSYCAADVLYYYGKYDYWGQGTQVTVSS | high polyreactivity
11 | QVQLVESGGGLVQAGGSLRLSCAASGRTFRNNTMGCYRQAPGKERELVATITGSGGSTYYADSVKGRFTISRDNSKNTVYLQMNSLKPEDTAVYYCAAVGDQNEYVYWGQGTQVTVSS | low polyreactivity
12 | QVQLVESGGGLVQAGGSLRLSCAASGRTFRNYAMGWSRPAPWKERELVATITSSGASTYYADSVKGRFTISRDNAKNTVYLQMNSLKPEDTAVYYCAARPYTGRYFLCYYYWGQGTQVTVSS | high polyreactivity
13 | QVQLVESGGGLVQAGGSLRLSCAASGRTFRPYAMGWSRQAPGKERELVAAIDSSGTSTYYADSVKGRFTISRDNAKNTVYLQMNSLKPEDTAVYYCAKAWPDHWYSRYDYWGQGTQVTVSS | low polyreactivity
14 | QVQLVESGGGLVQAGGSLRLSCAASGRTFRPYAMGWYRPAPGKERELVAAISSRGSSTYYADSVKGRFTISRDNAKNTVYLQMNSLKPEDTAVYYCAARSYWGGLRYDYWGQGTQVTVSS | high polyreactivity
15 | QVQLVESGGGLVQAGGSLRLSCAASGRTFRPYAMGWYRQAPGKERELVAAISQSVGSTYYADSVKGRFTISRDNAKNTVYLQMNSLKPEDTAVYYCAADRWSATHYVWYDYWGQGTQVTVSS | high polyreactivity
16 | QVQLVESGGGLVQAGGSLRLSCAASGRTFRPYAMGWYRQAPGKERQFVAAISSSGGSTYYADSVKGRFSISRDNAKNTVYLLMNSLKPEDTAVYYCATGRKNAAQRWGYYYWGQGTQVTVSS | high polyreactivity
17 | QVQLVESGGGLVQAGGSLRLSCAASGRTFRPYDMGWYRQAPGKERELVATITTNGGSTYYADSVKGRFTISRDNAKNTVYLQMNSLKPEDTAVYYCATDNWWQTYHYQGGYYWGQGTQVTVSS | low polyreactivity
18 | QVQLVESGGGLVQAGGSLRLSCAASGRTFRQYAMGWYRQAPGKERELVATISSGGSTYYADSVKGRFTISRDNAKNTVYLHMNSLKPEDTAVYYCNAEGQWSRAPRDYWGQGTQVTVSS | low polyreactivity
19 | QVQLVESGGGLVQAGGSLRLSCAASGRTFRRNAMGWYRQAPGKERELVAAISSRGGSTYYADSVKGRFTISRDNAKNSVYLQMNSLKPEDTAVYYCNKGTPPTGTLGDYEYWGQGTQVTVSS | high polyreactivity
20 | QVQLVESGGGLVQAGGSLRLSCAASGRTFRRYAMGWYRQAPGKERELVAAISRSGGSTYYADSVKGRFTISRDNAKNTVYLQMNSLKPEETAVYYCAAGIWSKLVEPFDYWGQGTQVTVSS | high polyreactivity
21 | QVQLVESGGGLVQAGGSLRLSCAASGRTFRRYAMGWYRQAPGKERELVAVITRGGNTNYADSVKGRFTISRDNAKNTVYLQMNSLKPEDTAVYYCAAELYNYGYDYWGQGTQVTVSS | low polyreactivity
22 | QVQLVESGGGLVQAGGSLRLSCAASGRTFRSDNAMGWYRQAPGKERELVAAISQGGGTYYADSVKGRFTISRDNAKNTVYLQMNSLKPEDTAVYYCARDAYYADPSLWYYTYDYWGQGTQVNVSS | low polyreactivity

Row | Sequence | polyreactivity (PSR sort gate)
23 | QVQLVESGGGLVQAGGSLRLSCAASGRTFRSNAMGWYRQAPGKERELVATISGRGGSTYYADSVKGRFTISRDNAKNTVYLQMNSLKPEDTAVYYCAKRTTLIRDYEYWGQGTQVTVSS | high polyreactivity
24 | QVQLVESGGGLVQAGGSLRLSCAASGRTFRSNTKGGYRQAPGKERELVAAISWSGTRTYYADSVKGRFTISRDNAKNSVYLQMNSLKPEDTAVYYCNAVGFDQPRYYYWGQGTQVTVSS | high polyreactivity
25 | QVQLVESGGGLVQAGGSLRLSCAASGRTFRSNVMRWYRQAPGKERELVASITWSGGTTYYADSVKGRFTISRDNAKNTVYLQMNSLKPEDTAVYYCNAADERSQGWVGYDHWGQCTQVTVSS | low polyreactivity
26 | QVQLVESGGGLVQAGGSLRLSCAASGRTFRSYAMGWYRQAPGKERELVAAISDGGSTNYADSVKGRFTISRDNAKNTVYLQMNSLKPEDTAVYYCAAEIFFAVFRFYYWGQGTQVTVSS | low polyreactivity
27 | QVQLVESGGGLVQAGGSLRLSCAASGRTFRSYAMGWYRQAPGKERELVAAISRGGRTNYADSVKGRFTISRDNAKNTVYLQMNSLKPEDTAVYYCAARLPYLGGYDYWGQGTQVTVSS | high polyreactivity
28 | QVQLVESGGGLVQAGGSLRLSCAASGRTFRSYTMGWYRQAPGKERELVAAIRTSSGSTYYADSVKGRFTISRDNAKNTVYLQMNSLKPEDSGVYYGAKTLLYPWFRTVAVDYWGQGTQVTVSS | low polyreactivity
29 | QVQLVESGGGLVQAGGSLRLSCAASGRTFRSYTMGWYRQAPGKERELVASITRSGVSTYYADSVKGRFTISRDNAKNTVYLQMNSLKPEDTAVYYCAAYSVFRSYDYWGQGTQVTVSS | high polyreactivity
30 | QVQLVESGGGLVQAGGSLRLSCAASGRTFRTYAMGWYRQAPGKERELVAAISFSDGSTYYADSVKGRFTISRDNAKNTVYLQMNSLKPEDTAVYYCAKEYEYPYYIRYQVGYDFDYWGQGTEVTVSS | low polyreactivity
31 | QVQLVESGGGLVQAGGSLRLSCAASGRTFRTYAMGWYRQAPGKERELVAAITSGGSTYYADSVKGRFTISRDNAKNTVYLQMNSLKPEDTAVYDCAAISTWGTKYDYWGQGTQVTVSS | high polyreactivity
32 | QVQLVESGGGLVQAGGSLRLSCAASGRTFRTYAMGWYRQAPGKERELVAAITTSGSSTYYADSVKGRFTISRDNAKNTVYLQMNSLKPEDTAVYYCAAARAAIVPGYYSWGQGTQVTVSS | low polyreactivity
33 | QVQLVESGGGLVQAGGSLRLSCAASGRTFRTYTMGWYRQAPGKERELVAAISWSGSSTYYADSVKGRFTISRDNAKNTVYLQMNSLKPEDTAGYYCAARGLYDYGYWGQGTQVTVSS | high polyreactivity
34 | QVQLVESGGGLVQAGGSLRLSCAASGRTFRVYAIGWYRQAPGKEREFVATISVRGGSTYYADSVKGRFTISRDNAKNTVYLQMNSLKPEDTAVYYCAADSYPYVYALYDSWGLGTQVTVSS | low polyreactivity
35 | QVQLVESGGGLVQAGGSLRLSCAASGRTFRVYAMGWYRQAPGKERELVAAINGGGSTNYADSVKGRFTISRDNAKNTVYLQMNSLKPEDTAVYYCIATGRRSKRIYDYWGQGTQVTVSS | high polyreactivity
36 | QVQLVESGGGLVQAGGSLRLSCAASGRTFRVYAMGWYRQAPGKERELVAAINGGGSTNYADSVKGRFTISRDNAKNTVYVQMNSLKPEDTAVYYCNATGRRSKRIYDYWGQGTQVTVSS | high polyreactivity
37 | QVQLVESGGGLVQAGGSLRLSCAASGRTFRVYAMGWYRQAPGKERELVAGIRSRGGSTYYADSVKGRFTISRDYAKNTVYLQMNSLKPEDTAVYYCAAGYYLPQAIYEYWGLGTQVTVSS | high polyreactivity
38 | QVQLVESGGGLVQAGGSLRLSCAASGRTFRWNAMGWYRQAPGKERELVASITVNGGSTSYADSVKGRFTISRDNAKNTVYLQMNSLKPEDTAVYYCNAYYTYWYPRYDYWGQGTQVTVSS | low polyreactivity
39 | QVQLVESGGGLVQAGGSLRLSCAASGRTFRWNVMGWYRQAPGKERELVAAISSDGSTYYADSVKGRFTISGDNAKNTVYLQMNSLKPEDTAVYYCAAVVSYYFRYGGSAYKYGYWGQGTQVTVSS | high polyreactivity
40 | QVQLVESGGGLVQAGGSLRLSCAASGRTFRWYAMGWYRQAPGKERELVAAIRSGGRTYYADSVKGRFTISRDNAKNTVYLQMNSLKPEDTAVYYCAALAVTYRYDYWGQGTQVTVSS | high polyreactivity
41 | QVQLVESGGGLVQAGGSLRLSCAASGRTFRWYAMGWYRQAPGKERELVAAITSDGRTYYADSVKGRFTISRDNAKNTVYLQMNSLNPEDTAVYYCNAACRYAFPFGYNYWGQGTQVTVSS | high polyreactivity
42 | QVQLVESGGGLVQAGGSLRLSCAASGRTFRWYTMGWYRQAPGKEREFVAAITWSGSSTNYADSVKGRFTISRDNAKNTVYLQMNSLKPEDTAVYYCAAENRRRRDDYWGQGTQVTVSS | high polyreactivity
43 | QVQLVESGGGLVQAGGSLRLSCAASGRTFRYNAMGWYRQAPGKERELVAAINWNGGSTYYADSVKGRFTISRDNAKNTGYLQMHSLKPEDTAVYYCNADFYHRYDWGQGTQVTGSS | high polyreactivity
